Reference: patent US6506595

Legend:
[1] = target: MWPmp20-TEV-G-GH
[2] = target: MWPmp20-(His)6-EGF-TEV-Somatostatin 28

B1: TEV protease (GIBCO BRL) (protein)
chain: GESLFKGPRDYNPISSTICHLTNESDGHTTSLYGIGFGPFIITNKHLFRRNNGTLLVQSLHGVFKVKNTTTLQQHLIDGRDMIIIRMPKDFPPFPQKLKFREPQREERICLVTTNFQTKSMSSMVSDTSCTFPSSDGIFWKHWIQTKDGQCGSPLVSTRDGFIVGIHSASNFTNTNNYFTSVPKNFMELLTNQEAQQWVSGWRLNADSVLWGGHKVFMSKPEEPFQPVKEATQLMNELVYSQ
- cleavage of the fusion protein, shown by SDS-PAGE and Western blotting [1]: the mutant human growth hormone G-GH with extra Gly at the N-terminus was cleaved at the same position (as indicated by an arrow) as the commercially available human growth hormone
- cleavage of the fusion protein, shown by Western blotting [2]: somatostatin 28 was cleaved out with TEV protease
